The source of these data is patent US9345765B2, “Diagnostic and therapeutic uses of moesin fragments” (SHANGHAI KEXIN BIOTECH CO., LTD., priority 2010, dated 2016).

Assay type in all cases: cell-based, human
Experiment [1] relates to platelets. Put plainly: Platelet aggregation assay (Born method, transparency). As for the experimental part: Plasma samples were collected from 6 healthy individuals and mixed with 3.8% sodium citrate in the ratio of 9:1 (v/v) to prevent solidification of the plasma. The mixed plasma samples were then centrifuged to obtain a portion of platelet-rich plasma (“PRP”) and another portion of platelet-poor plasma (“PPP”). The PRP was diluted with PPP to obtain a plasma sample having a platelet count of 5×10^8 per milliliter as a testing plasma sample for later use.
The testing plasma sample was incubated in the presence of an inhibitor of platelet activation as described in Table 3 below for several minutes, and thereafter an activator of platelet activation as described in Table 3 below was added therein and the plasma sample was further incubated for another several minutes to obtain a final mixture. The final mixture was detected for blood aggregation by measuring the transparency of the sample using TYXN-91 Intelligent Blood Agglutometer according to the Born methods. The transparency of PRP in the presence of either ADP or antibody against the N-terminal domain of moesin was also detected as positive controls. A negative control containing no inhibitor was also tested.
The testing results which was shown as platelet aggregation rate (“PAR”) and platelet aggregation inhibition rate (“PAIR”) are listed in Table 3 below.
PAR is calculated by, 1) subtracting PPP's transparency with the testing group's transparency, and 2) dividing the result of step 1) by PPP's transparency and then multiplying 100%. PAIR is calculated by, 1) subtracting the PRP group's PAR with the testing group's PAR, and 2) dividing the result of step 1) by the PRP group's PAR and then multiplying 100%.
The RGDS was prepared according to a conventional peptide synthesis in solid phase and used herein with a concentration of 10 ug/ml in 0.01M PBS. The moesin fragments and anti-moesin antibodies used in this experiment were prepared according to Example 1. The concentration regarding an inhibitor as described in Table 3 below is a final concentration of the inhibitor in the testing plasma sample, and the concentration regarding the activator of ADP and the antibody against N-terminal FERM domain of moesin also refers to a final concentration in the testing plasma sample.

In experiment [2] the test system is platelets. In words: Stimulation of platelet activation: CD62P and CD63 expression in plasma by flow cytometry. The settings on record: for CD62P FD (Mnx) / CD63 FD (Mnx): agent alone in plasma of 12 healthy individuals, final conc. ADP 5 μM, antibody 20 μg/ml, FERM domain 2 mM. As for the experimental part:
The expressions of CD62P and CD63 are associated with platelet activation. Therefore, these two proteins can be used as indicators to characterize the profile of platelet activation. This experiment was performed in vitro to assess stimulation of platelet activation in the presence of various agents by detecting the expression levels of CD62P and CD63 using CD62P monoclonal antibody and CD63 monoclonal antibody.
Plasma samples were collected from 12 healthy individuals, and cultured at room temperature in the presence of various agents as described in Table 1 below for several minutes (e.g. 5 mins). The culture conditions were selected so that the platelets can be fully activated within about 10 mins. After that, CD62P monoclonal antibody and CD63 monoclonal antibody labeled with fluorescein isothiocyanate (FITC) were used to detect the expressed CD62P and CD63 in the plasma samples, and the fluorescence density (“FD”) of the plasma samples was detected using flow cytometry of Beckman Coulter EPICS-XL. The expression levels of the CD62P and CD63 were represented by the average value of fluorescence density detected.
The agents being tested in this assay are listed in Table 1 below, including ADP which is known as an agent stimulating platelet activation (Group 1), the anti-moesin N-terminal domain antibody (Group 2) and the N-terminal FERM domain of moesin (Group 3) which were both prepared according to Example 1.
The concentration of an agent listed in Table 1 is a final concentration of the agent in the plasma sample. A plasma sample without any of the test agents was tested as a control group. The results are listed in Table 1 below and also illustrated in FIG. 6.
(In general: Flow cytometry measures light scatter and fluorescence of single cells or particles in a stream.)

The subject of experiment [3] is platelets. Put plainly: Inhibition of platelet activation induced by activators: CD62P and CD63 expression by flow cytometry. Also on record: key to CD62P FD (Mnx) / CD63 FD (Mnx): mean fluorescence density by flow cytometry. Particulars: for effect on platelet activation induced by ADP (in words): activator ADP; for effect on platelet activation induced by the antibody against the N-terminal FERM domain of moesin (in words): activator anti-moesin N-terminal domain antibody; for CD62P FD (Mnx) / CD63 FD (Mnx): inhibitor first, n = 12. As for the experimental part: This experiment is performed to assess the blocking effect of various inhibitors (i.e. test agents) on the platelet activation induced by various different activators.
The plasma samples were collected from 12 healthy individuals, and cultured in the presence of an inhibitor as described in Table 2 below for several minutes (e.g. 5 mins), and thereafter an activator of platelet activation was added therein and the plasma samples were further cultured for another several minutes (e.g. 5 mins). The culture conditions were the same as Example 2. After that, CD62P monoclonal antibody and CD63 monoclonal antibody labeled with FITC were used to detect the expressed CD62P and CD63 in the plasma samples, and the fluorescence density of the plasma samples was detected using flow cytometry of Beckman Coulter EPICS-XL. The expression levels of the CD62P and CD63 were represented by the average value of fluorescence density detected. A control group using 0.01M PBS instead of any inhibitor was also tested.
The peptide RGDS is known as an inhibitor of platelet activation that inhibits platelet's activation by competing with platelet activator combined-1 (PAC-1) to bind to glycoprotein (GP) IIb/IIIa complex on the surface of platelets. The RGDS was prepared according to a conventional peptide synthesis in solid phase and used herein with a concentration of 10 mg/ml in 0.01 M PBS. The moesin fragments and anti-moesin antibodies used in this experiment were prepared according to Example 1. As used in this experiment, the anti-moesin N-terminal domain antibody has a concentration of 20 μg/ml in 0.01M PBS, the N-terminal FERM domain has a concentration of 2 mM in 0.01M PBS, and the anti-moesin C-terminal domain has a concentration of 20 μg/ml in 0.01M PBS. The ADP used herein has a concentration of 5 μM in 0.01M PBS. The results are listed in Table 2 below and also illustrated in FIG. 7.

Where [4] appears, read: then activator ADP (50 μl, 5 μM).
The mark [5] stands for this setting: then activator Anti-moesin N-terminal domain (50 μl, 20 μg/ml).
[6] abbreviates: activator ADP (5 μM), inhibitor at final concentration of Table 3, n = 6.
[7] abbreviates: activator Anti-moesin N-terminal domain antibody (2 μg/mL), n = 6.

For `Nc1ncnc2c1ncn2[C@@H]1O[C@H](COP(=O)(O)OP(=O)(O)O)[C@@H](O)[C@H]1O` [ADP, reference compound], in experiment [1] (PRP positive control, no inhibitor, ADP 5 μM or antibody 2 μg/mL, n = 6), the “PAR (%) of PRP with the activator alone” value is reported as 45.62%. Moreover, in experiment [2], the “CD62P FD (Mnx)” value is listed as 12.88 and the “CD63 FD (Mnx)” value is reported as 11.31.

With “RGDS [solid-phase synthesis, reference compound]”, in experiment [3], the “effect on platelet activation induced by ADP (in words)” value was “can substantially inhibit” and the “effect on platelet activation induced by the antibody against the N-terminal FERM domain of moesin (in words)” value is recorded as “no blocking effect”. For the same molecule, in experiment [3] (setting [4]), the “CD62P FD (Mnx)” value is given as 7.04 and the “CD63 FD (Mnx)” value is given as 5.61. In experiment [3] (setting [5]), the “CD62P FD (Mnx)” value is 17.98 and the “CD63 FD (Mnx)” value is 20.13. In experiment [1] (setting [6]), the “PAR (%) platelet aggregation rate” value was 11.12%. Moreover, in experiment [1] (setting [7]), the “PAIR platelet aggregation inhibition rate” value was found to be 9.77% and the “PAR (%) platelet aggregation rate” value amounted to 55.55%. For the same molecule, the “inhibition of platelet aggregation induced by the antibody against the N-terminal FERM domain of moesin (in words)” value in experiment [1] (activator anti-moesin N-terminal domain antibody) is “much less inhibiting effect”.

B1: N-terminal FERM domain of moesin: N-terminal FERM domain of human moesin, amino acid residues 1-297 (SEQ ID NO:2), expressed in E. coli BL21(DE3) (protein)
chain: MPKTISVRVTTMDAELEFAIQPNTTGKQLFDQVVKTIGLREVWFFGLQYQDTKGFSTWLKLNKKVTAQDVRKESPLLFKFRAKFYPEDVSEELIQDITQRLFFLQVKEGILNDDIYCPPETAVLLASYAVQSKYGDFNKEVHKSGYLAGDKLLPQRVLEQHKLNKDQWEERIQVWHEEHRGMLREDAVLEYLKIAQDLEMYGVNYFSIKNKKGSELWLGVDALGLNIYEQNDRLTPKIGFPWSEIRNISFNDKKFVIKPIDKKAPDFVFYAPRLRINKRILALCMGNHELYMRRRKP
modifications: N-terminal FERM domain of human moesin protein
As for B1, the “effect on platelet activation induced by ADP (in words)” value in experiment [3] is “no significant effect”. Also, in experiment [3], the “effect on platelet activation induced by the antibody against the N-terminal FERM domain of moesin (in words)” value is “can significantly block”. The “CD62P FD (Mnx)” value in experiment [3] (setting [4]) was 11.38; in experiment [3] (setting [5]) it was 5.79; in experiment [2] it was 2.99. Moreover, the “CD63 FD (Mnx)” value is listed as 7.23 in experiment [3] (setting [4]), 6.30 in experiment [3] (setting [5]) and 1.55 in experiment [2]. The “inhibition of platelet aggregation induced by ADP (in words)” value in experiment [1] (activator ADP) is recorded as “much less”. For the same molecule, the “PAIR platelet aggregation inhibition rate” value in experiment [1] (setting [6]) was 39.61%; in experiment [1] (setting [7]), “approximately 90%”; in experiment [1] (activator Anti-moesin N-terminal domain antibody (2 μg/mL), n = 6, listed as N-terminal domain), 90.21%. In addition, the entries for the “PAR (%) platelet aggregation rate” value in experiment [1] (setting [6]) and in experiment [1] (setting [7]) were 27.55% and 6.03%, respectively. The “stimulation of platelet activation (in words)” value in experiment [2] (agent alone, CD62P and CD63 expression vs control group) was “does not stimulate platelet activation”.
